B1: thermophilin 1: first bacteriocin from S. thermophilus CNCM I-1351, sequence SEQ ID NO: 1, found in fraction 15 (protein)
chain: YSGKDCLKDMGGYALAGAGSGALWGAPAGGVGALPGAFVGAHVGAIAGGFACMGGMIGNKFN

One assay concerns the target standard crude extract of bacteriocin from the culture supernatant of S. thermophilus CNCM I-1351.
Assay: not given
Settings: not given
The molecule Catalase (SIGMA C-10) (enzyme) registered an Inactivation (mm): diameter of the inhibition halo in the agar well test after incubation with the enzyme of 14 mm.
For Ficin (SIGMA P-3266) (enzyme), the Inactivation (mm): diameter of the inhibition halo in the agar well test after incubation with the enzyme was determined as 0 mm.
With “Lipase (SIGMA L-0382) + protease inhibitors (enzyme)”, the Inactivation (mm): diameter of the inhibition halo in the agar well test after incubation with the enzyme is 14 mm.
Turning to Nagarse (SIGMA P-4789) (enzyme), the Inactivation (mm): diameter of the inhibition halo in the agar well test after incubation with the enzyme worked out at 0 mm.
Pepsin (SIGMA P-700) (enzyme): the Inactivation (mm): diameter of the inhibition halo in the agar well test after incubation with the enzyme was 0 mm.
With Pronase E (SIGMA P-8038) (enzyme), the Inactivation (mm): diameter of the inhibition halo in the agar well test after incubation with the enzyme came out at 0 mm.
On the same count and under the same terms, with “Proteinase K (MERCK 1000 144) (from UniProt P06873) (enzyme)” the figure was 0 mm.
As to Trypsin (SIGMA T-8128) (enzyme), the Inactivation (mm): diameter of the inhibition halo in the agar well test after incubation with the enzyme is 0 mm.
On to α-amylase (SIGMA λ-0521) (enzyme), for which the Inactivation (mm): diameter of the inhibition halo in the agar well test after incubation with the enzyme stood at 14 mm.
The molecule α-chymotrypsin (SIGMA C-7762) (enzyme) showed an Inactivation (mm): diameter of the inhibition halo in the agar well test after incubation with the enzyme of 0 mm.

For a further assay, the system named is S. thermophilus strain Sfi3 (typical indicator). In words: Agar well test, antibacterial activity in arbitrary units. The assay is classed as cell-based, Streptococcus thermophilus. Particulars: Pep RPC fractions 15 and 21. How it is done:
In order to do this, 35 ml of M 17 medium are poured into a Petri dish and 1% sucrose and 1.5% agar are added thereto.
5 ml of M 17 medium to which 1% sucrose and 0.75% agar are added are inoculated with 5 μl of a culture, prepared during the previous night, of a strain of S. thermophilus which is typically sensitive to the present bacteriocin (typical indicator), in this case the strain Sfi3 for example.
The 5 ml are poured over the 35 ml and left to dry for 15 min under a laminar flow. Holes of 5 mm in diameter are punched in the culture medium.
The test samples are poured into the holes, in an amount of 70 μl per hole. The incubation is carried out for 6 h under anaerobic conditions at 42° C. During this incubation, the typical indicator strain has grown and inhibition halos are visible.
As to “thermophilin 2: second bacteriocin from S. thermophilus CNCM I-1351, sequence SEQ ID NO: 2, predominant in fraction 21 (QINWGSVVGHCIGGAIIGGAFSGGAAAGVGCLVGSGKAIINGL)”, the “antibacterial activity of purified peptide fractions” value was “antibacterial activity”.
Take B1: the “antibacterial activity of purified peptide fractions” value is on record as “antibacterial activity”.
